Experimental data as given in article PMC2291074 (Molecular Vision, 2008).
Ends that are not written are not given here.

T1: recombinant human αB-crystallin (human, UniProt P02511 1-175)
T1 construct: human αB-crystallin, cDNA cloned into pET-23d(+); tryptic peptides 1-11 and 164-175 were observed; No tag is named and purification was by SEC and ion exchange, so it is probably untagged; source: E. coli BL21(DE3) pLysS, purified (size exclusion chromatography, then ion-exchange chromatography)
T1 sequence (looked up): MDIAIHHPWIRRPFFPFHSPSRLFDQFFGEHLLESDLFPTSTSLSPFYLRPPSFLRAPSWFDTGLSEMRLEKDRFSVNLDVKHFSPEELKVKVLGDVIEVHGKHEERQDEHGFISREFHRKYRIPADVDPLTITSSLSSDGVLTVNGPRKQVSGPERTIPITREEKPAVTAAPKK


What was measured:
[1] = target: T1, recombinant human αB-crystallin; assay: cross-linking; sulfo-SBED label transfer: 0.25 mg derivatized peptide with 0.25 mg αB-crystallin at 37 °C for 2 h; unbound peptide removed on a 10,000 Da cut-off filter; photolysis at 365 nm for 15 min on ice; biotin on αB-crystallin detected by SDS-PAGE and avidin-HRP blot; conditions: both partners purified
[2] = target: T1, recombinant human αB-crystallin

binding result [1] | light scattering at 60 min of βL-crystallin (100 μg) denatured at 55 °C with 5 μg αB-crystallin and 60 μg substituted peptide (αB-crystallin alone: decreased by 41%); no anti-chaperone effect [2] [%] | Binder
binds | – | SDAYHIERLMSFRPIC (also: sulfo-SBED cross-linker attached, site not given here, The peptide has no lysine, so the amine-specific reagent probably sits on the N-terminal amine; also called biotin-derivatized peptide; source: synthetic peptide, purified by HPLC, derivatized with sulfo-SBED and dialyzed) [sulfo-SBED-derivatized βA3/A1_(102–117) peptide]
– | 53 | SDADHGERLMSFRPIC [substituted peptide]
